According to the DeepSol protein solubility set:

Test: soluble on expression in E. coli; label from the status in PepcDB or PDB records

Row | Sequence | soluble on expression in E. coli
1 | MSNVQEWQQLANKELSRREKTVDSLVHQTAEGIAIKPLYTEADLDNLEVTGTLPGLPPYVRGPRATMYTAQPWTIRQYAGFSTAKESNAFYRRNLAAGQKGLSVAFDLATHRGYDSDNPRVAGDVGKAGVAIDTVEDMKVLFDQIPLDKMSVSMTMNGAVLPVLAFYIVAAEEQGVTPDKLTGTIQNDILKEYLCRNTYIYPPKPSMRIIADIIAWCSGNMPRFNTISISGYHMGEAGANCVQQVAFTLADGIEYIKAAISAGLKIDDFAPRLSFFFGIGMDLFMNVAMLRAARYLWSEAVSGFGAQDPKSLALRTHCQTSGWSLTEQDPYNNVIRTTIEALAATLGGTQSLHTNAFDEALGLPTDFSARIARNTQIIIQEESELCRTVDPLAGSYYIESLTDQIVKQARAIIQQIDEAGGMAKAIEAGLPKRMIEEASAREQSLIDQGKRVIVGVNKYKLDHEDETDVLEIDNVMVRNEQIASLERIRATRDDAAVTAALNALTHAAQHNENLLAAAVNAARVRATLGEISDALEVAFDRYLVPSQCVTGVIAQSYHQSEKSASEFDAIVAQTEQFLADNGRRPRILIAKMGQDGHDRGAKVIASAYSDLGFDVDLSPMFSTPEEIARLAVENDVHVVGASSLAAGHKTLIPELVEALKKWGREDICVVAGGVIPPQDYAFLQERGVAAIYGPGTPMLDSVRDVLNLISQHHD | soluble
2 | EMTDLQSTHKDFLFEIEEVGIKNLVYPVLVDQYQTAGTFSFSTSLTKDEKGINMSRIIESVEKHYDNGIELEFNTLYQVLRTLQTNMKQNAAGVDVSGKWFFDRYSPTTNIKAVGNADVTYGLAIDGDKVTRKELTIEATVTTLCPCSKEISEYSAHNQRGVVTVKTYINKDQNIVDDYKNKILDAMEANASSILYPILKRPDEKRVTERAYENPRFVEDLIRLIAADLVEFDWLDGFDIECRNEESIHQHDAFAKLKYRK | not soluble
3 | MNNAALRHWKQQQRARLRELRQQVPVTQRMLWSDAITAVLTQGFPFLENQRIGFYWPHQGEYDPIPAMTFLRTRGATLALPEVISKDEPLRFIEWWPEAPMKKDIYGIPFPDNTRGITVDSIIIPLLGFDEQGYRLGYGSGYFDRTLAAMSPRPLAIGVAFEILRLPTIHPQQHDIPMDYIVTEQSILHRTDTGLVPLTAPIVQSETALEHHHHHH | soluble
4 | MGSDKIHHHHHHMKYSPASETIFVADNQERTMRVEVMEHYGLTQSIEQAGYYETAHHKQLMKDIKGAIREGRLIAVCGVVGSGKTVTLRRLQQQLLDENKIIVARSLSVDKQSVRLATLINALFYDLAQDKQVQIHKQGERRERELQELVKKGKRPVALFVDEAHDLNGNTLTGLKRLMEVVEDGGGRLSVVLAGHPKLRNDLRRPTMEEIGYRTDIFTLDGITGSQREYIQWLLKTSTGKGKPEDILTTEAVDLLAMKLRTPLQVQLHLTLAMEAGYQTGEKPITATLVESVLSRQLDDLEPTLTRHGYRLKDMVEQFDAKPAEIRALFNNQLDPARTAELRDRMLAVGLPI | not soluble
5 | MSLQIVFPTPNQVEMQTGNLILGKKVSMYAEDTTAFYLNLFREEVLSHTPIKWQKKESKADICWITDSSLPPEGYRIKIHPQQMVISASDKGGFTYAVQTLRQWVAGSAGSITFACASVTDYPRTQWRCFLLDSGRQFQKITTIRKYIDMASLLKMNYFHWHLTEGLGWRIEIKQYPHLTRTGGSVGKGEEQQGFYTQEEIRDIIEYARQRNITIVPEIDMPGHAEAALSAYPELGCFGLPVEIPQSGFTQNIFCAGKDGTLRFLKNVLDEVCALFPSPYIHLGGDEAPKGNWDQCPDCRKRITTEGLKDSHDLQLWFSAQMANYLKSKGRKAIFWGDVVYHDGYPLPDNTVIQWWNYRGHKDLALRNAVKHHYPVICSSNYYTYLNFPVTPWKGYTEARTFDLKDVYLNNPSDKAISEKNPLILGMSCALWTDDGVTERMIDRRLFPRILALSEQMWHEGEALDFDRFYRNILHRKAWFEEAGFEFGPALKEDVTKDYKWDEGHHHHHH | soluble
6 | MGSDKIHHHHHHIYWEFTTKNMLVLEFIEGIRIDDLESLNASKHNIKNITEIGTEVFFLQVFRDGFFHGDMHPGNILIDKEGALIPIDFGIMGRLSNKDRQFLALLLTYLLNKNYRKVVEIHDEANMLGKDVSHDHLSQAIRAISTPILNKPIGEVSLAKLLGQILSLSKKFNIEVQPQFTLLQKTMLMAEGTTRQINPNINMWELSRPLIDKWINDTHDPFKVLEEWFHKNKIALLKIPEIINKIDKILS | not soluble
7 | MAYTLHKMTKKLHKQKFFQFAAFIQKKFDSPLFKAIRKRSCHWSDISNHNDNYDLTVASYNVHKCIGVDKVFNPTRIVQVITELQVDILALQEADKRFGERIGLIDLQLLKAETGLIPVPLNTMSPHGHGWHGNALFLRKGHVCDTLQITLPGIEPRGAVIADLEMEVGPIRVIAAHFGLLRHSRNQQTKMLLSLLQKRPLMPTLLIGDFNEWRIGKGSSLNHFAPYFDSTVGTVPSFPSRFPLLALDRILAFPHQLVIRIENHHSPLARIASDHLPIKAYLDLSHAMATLKK | not soluble
8 | MKWFRFPIAVIGLVLLSGCATQNESATQWLYPPMAVPLQASIQQEVQIARLSQLLQRTDLEPEIRAKMLFERGNYYDSVGLRDLARLDFTQSLSINPAQPDVFNLLGVYYTEAGEFDAAYESFDSTLELDPSNEYAVRNRAIALYYGERPQLALEEITKHYQQDPQDPFRALWLYIIESDIDPTKARTELLERYQQHDEQWGWVLVGLMLDQLSEEVAFKAIIAGSRENELLAQRLTEAYFYLGKRYQMQGELAHALSLYKLAISFNVYEYVEHRYAFLELGRIYQQAREEQLARAKAEAMTQ | not soluble
9 | MGSDKIHHHHHHMRQLLTYDLMESMRVTNQWMGASARALCSYPQLGLAANPFIQLTAAWGEVAERSFARMAAKPDWGISSIPGADGRDHVISIEPVMERAFGDLIRFDVQGREPTGRKILLVAPMSGHYATLLRKTVLSLLPDADVYITDWHNARDIPVSAGKFDIEDYTHYLVDFMREMGPDTNVIAVCQPAPLALAATAYLAEEDPKAQPRTLTLIGGPIDPDAAATDVTDFGRRVTMGHLEKFVVQRVGFKYAGAGRMVYPGIQQLASFMAMNAETHAKAFSDQVVAVSKGEASDHDKHNVFYDEYLAVMDMTAEFYLSTVERIFKNREIAKNTFVVDGKPVDIGKITSVAVKTVEGGKDDISAPGQCVAALDMLTGLPEEKKANYIEPDAGHYGIFAGKSWRNNIRPLVLEFIDANSGIKTPAKRAKPKLVEDPPVENVAV | not soluble
10 | MSRLATLTWTSYRRGYTEIVTSAGLEVVFEPGDEWNSHDREYQQARLEVEGRGESGDGTVRTRTQALLRWQFKIKDGTVKRLPEADFTREVLVAVRLAIKDYRSQSSELRQKYFGPGFAMGG | not soluble
11 | MQFSTTPTLEGQSIVEYCGVVTGEAILGANIFRDFFAGIRDIVGGRSGAYEKELRKAREIAFQELGEQAKALGADAVVGIDIDYETVGKDGSMLMVSVSGTAVKTRR | not soluble
12 | MKVMLSLFKRESIKGITMKKSTLLNSELSYLVATLGHTDEITICDAGLPIPDEVTRIDLALTHGVPSFLETVRVILSESQIESVIVAQEFAQVSPVLHEALYRELKAEEQLCGKPIAIQYISHEAFKQRTLQSRAVVRTGECTPYANVIFQAGVVF | not soluble
13 | SPLEQRSQHCKPEEGLEARGEALGLVGAQAPATEEQEAASSSSTLVEVTLGEVPAAESPDPPQSPQGASSLPTTMNYPLWSQSYEDSSNQEEEGPSTFPDLESEFQAALSRKVAKLVHFLLLKYRAREPVTKAEMLGSVVGNWQYFFPVIFSKASDSLQLVFGIELMEVDPIGHVYIFATCLGLSYDGLLGDNQIMPKTGFLIIILAIIAKEGDCAPEEKIWEELSVLEVFEGREDSIFGDPKKLLTQYFVQENYLEYRQVPGSDPACYEFLWGPRALIETSYVKVLHHMVKISGGPRISYPLLHEWALREGEE | soluble
